Laboratory results taken from article PMC7764960, “Nucleus Accumbens-Associated Protein 1 Binds DNA Directly through the BEN Domain in a Sequence-Specific Manner”.

Legend:
NAC1 (322-485) [1] = biological target: T1, NAC1 (322-485) (Homo sapiens, UniProt Q96RE7 322-485); assay: ITC; single event; ITC: 20 mM HEPES pH 7.0, 0.1 M NaCl, 1 mM TCEP, 20 C (Fig 2 legend says 25 C); pull-down: 4 C with 10 ug poly(dI/dC), buffer not stated; NMR 298 K; conditions: protein: recombinant; tags: His (pET28HisTEV); blunt
T1 sequence: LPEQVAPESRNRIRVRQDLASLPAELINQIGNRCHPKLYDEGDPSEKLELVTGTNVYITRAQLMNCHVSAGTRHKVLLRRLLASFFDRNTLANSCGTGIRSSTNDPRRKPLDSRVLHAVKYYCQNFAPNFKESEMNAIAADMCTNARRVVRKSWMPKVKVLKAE

NAC1 (322-485) [2] = biological target: T1, NAC1 (322-485); assay: ITC; first of two sequential events (Kd1); ITC: 20 mM HEPES pH 7.0, 0.1 M NaCl, 1 mM TCEP, 20 C (Fig 2 legend says 25 C); pull-down: 4 C with 10 ug poly(dI/dC), buffer not stated; NMR 298 K; conditions: protein: recombinant; tags: His (pET28HisTEV); blunt
GST-NAC1 = biological target: T2, GST-NAC1 (Homo sapiens, UniProt Q96RE7 2-527); assay: pull-down; poly(dI/dC); ITC: 20 mM HEPES pH 7.0, 0.1 M NaCl, 1 mM TCEP, 20 C (Fig 2 legend says 25 C); pull-down: 4 C with 10 ug poly(dI/dC), buffer not stated; NMR 298 K; conditions: protein: recombinant; tags: GST N-term; chain copies: 2; label: 5' biotin on sense strand; blunt
T2 sequence: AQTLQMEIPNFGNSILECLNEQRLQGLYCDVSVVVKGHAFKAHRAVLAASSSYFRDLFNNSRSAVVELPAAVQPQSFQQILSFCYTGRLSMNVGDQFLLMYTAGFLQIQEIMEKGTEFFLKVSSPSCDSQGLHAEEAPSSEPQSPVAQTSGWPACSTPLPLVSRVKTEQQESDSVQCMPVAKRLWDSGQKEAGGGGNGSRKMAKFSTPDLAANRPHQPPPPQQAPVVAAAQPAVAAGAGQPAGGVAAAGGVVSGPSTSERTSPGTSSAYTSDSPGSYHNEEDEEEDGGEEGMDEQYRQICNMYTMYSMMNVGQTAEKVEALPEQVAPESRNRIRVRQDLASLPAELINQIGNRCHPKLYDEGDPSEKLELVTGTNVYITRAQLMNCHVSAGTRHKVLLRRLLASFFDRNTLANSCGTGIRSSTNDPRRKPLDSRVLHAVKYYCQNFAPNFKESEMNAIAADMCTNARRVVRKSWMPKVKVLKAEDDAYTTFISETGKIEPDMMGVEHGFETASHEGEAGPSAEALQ

NAC1 (322-485) [3] = biological target: T1, NAC1 (322-485); assay: ITC; single event; Table S2 prints 0.83; ITC: 20 mM HEPES pH 7.0, 0.1 M NaCl, 1 mM TCEP, 20 C (Fig 2 legend says 25 C); pull-down: 4 C with 10 ug poly(dI/dC), buffer not stated; NMR 298 K; conditions: protein: recombinant; tags: His (pET28HisTEV); blunt

B1: de novo motif 1 (dsDNA)
DNA 1: AACCGCCGCCAA
DNA 2: TTGGCGGCGGTT
B1 gave a Kd (NAC1 (322-485) [1]) of 3000 nM.

B2: GP1 14-mer dsDNA (dsDNA)
DNA 1: GTATGCATGTATGT
DNA 2: ACATACATGCATAC
B2 gave a Kd (NAC1 (322-485) [2]) of 160 nM.

B3: Biotin-GP1 (dsDNA)
DNA 1: TGTGTGTGTATGCATGTATGTATTTATT
DNA 2: AATAAATACATACATGCATACACACACA
B3: binds (GST-NAC1).

B4: Biotin-GP1 5'-mut (dsDNA)
DNA 1: TGTGTGTGTCATCATGTATGTATTTATT
DNA 2: AATAAATACATACATGATGACACACACA
B4: binds (GST-NAC1).

B5: de novo motif 2 (dsDNA)
DNA 1: AACCCCGCCCCAA
DNA 2: TTGGGGCGGGGTT
With B5 the Kd (NAC1 (322-485) [3]) was 820 nM.

B6: Biotin-GP1 3'-mut (dsDNA)
DNA 1: TGTGTGTGTATGCATGACGGTATTTATT
DNA 2: AATAAATACCGTCATGCATACACACACA
B6: binds (GST-NAC1).
